The record followed here is PMC5667935, “AMPylation targets the rate-limiting step of BiP’s ATPase cycle for its functional inactivation” (eLife, 2017).

Where only a bound is given, the exact number is not on record here.

Assay [1] deals with AMPylated wildtype Chinese hamster BiP (BiP^WT-AMP) (UniProt G3I8R9). Briefly: BLI. The settings on record: trace 6; AMPylated BiP WT; association in presence of ATP; signal at end of association step (20 min); parent is trace 4; parent: est. 0.95; read off a plot.
Assay [2] concerns the target wildtype Chinese hamster BiP, unmodified (BiP^WT) (UniProt G3I8R9). Briefly: BLI. The following applies: trace 3; association in presence of ATP; signal at end of association step (20 min); parent is trace 1; parent: est. 4.2; read off a plot.
Assay [3] deals with wildtype Chinese hamster BiP, unmodified (BiP^WT) (Chinese hamster (Cricetulus griseus)) (UniProt G3I8R9).
Sequence of wildtype Chinese hamster BiP, unmodified (BiP^WT) (Chinese hamster (Cricetulus griseus)) (G3I8R9 19-654): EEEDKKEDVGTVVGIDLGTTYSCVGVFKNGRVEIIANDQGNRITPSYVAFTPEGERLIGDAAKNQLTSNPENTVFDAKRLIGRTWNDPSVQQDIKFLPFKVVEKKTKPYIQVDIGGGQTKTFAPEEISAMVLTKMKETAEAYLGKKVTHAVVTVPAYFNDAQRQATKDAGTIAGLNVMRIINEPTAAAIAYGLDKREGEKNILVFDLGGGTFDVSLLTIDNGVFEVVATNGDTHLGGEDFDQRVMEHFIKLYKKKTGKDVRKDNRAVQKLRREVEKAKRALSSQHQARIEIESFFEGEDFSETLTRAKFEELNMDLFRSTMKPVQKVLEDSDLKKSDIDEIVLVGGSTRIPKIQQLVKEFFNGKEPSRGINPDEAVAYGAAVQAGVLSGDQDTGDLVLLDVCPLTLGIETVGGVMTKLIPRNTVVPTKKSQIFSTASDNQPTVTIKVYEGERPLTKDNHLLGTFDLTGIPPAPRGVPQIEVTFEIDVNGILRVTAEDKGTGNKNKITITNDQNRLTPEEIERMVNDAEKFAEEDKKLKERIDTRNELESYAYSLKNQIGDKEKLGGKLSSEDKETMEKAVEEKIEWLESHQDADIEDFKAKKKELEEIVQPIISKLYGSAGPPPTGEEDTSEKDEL
Assay [4] concerns the target T1, AMPylated Chinese hamster BiP T229A-V461F double mutant (AMPylated BiP^T229A-V461F) (Chinese hamster (Cricetulus griseus), UniProt G3I8R9 19-654, T229A | V461F, AMP on threonine 518 (T518-AMP)).
T1 construct: BiP (Grp78), Chinese hamster (Cricetulus griseus); Construct limits: see note of m1; source: E. coli M15, purified (Ni-NTA)
Briefly: BLI; Octet RED96, streptavidin sensors saturated with biotinylated GST-J (no P15); BiP^T229A-V461F at different concentrations in solution, 1 mM ATP in baseline, association and dissociation; HKM with 0.05% Triton X-100, 24°C; KD from steady state binding signals; binding sensitive to increasing KCl. The settings on record: both partners purified. Background: Biolayer interferometry detects binding as a change in optical thickness at a sensor tip.

The target of assay [5] is T2, Chinese hamster BiP T229A-V461F double mutant (BiP^T229A-V461F), unmodified (Chinese hamster (Cricetulus griseus), UniProt G3I8R9 19-654, T229A | V461F).
T2 construct: BiP (Grp78), Chinese hamster (Cricetulus griseus); Construct limits: see note of m1; source: E. coli M15, purified (Ni-NTA)
T2 sequence (G3I8R9 19-654 T229A/V461F): as the sequence (G3I8R9 19-654) above, with T211A, V443F counted along it
The assay is described as above. The following applies: both partners purified.

Assay [6] concerns the target T3, AMPylated wildtype Chinese hamster BiP (BiP^WT-AMP) (Chinese hamster (Cricetulus griseus), UniProt G3I8R9 19-654, AMP on threonine 518 (T518-AMP)).
T3 construct: BiP (Grp78), Chinese hamster (Cricetulus griseus); Same construct as m1, AMPylated at high stoichiometry (intact mass spectrometry); Construct limits: see note of m1; also called BiP-AMP; AMPylated BiP; source: E. coli M15, purified (Ni-NTA)
The assay is described as follows: BLI; Octet RED96, streptavidin sensors with biotinylated GST-J (to 0.4 nm) then saturated with biotinylated P15; BiP 15 µM in HKM with 0.05% Triton X-100 and 2 mM ATP for association; dissociation in protein-free solution with 2 mM ADP or ATP; 24°C; one-phase decay fit of the dissociation. The following applies: both partners purified.

In assay [7] the target is T4, Chinese hamster BiP T518E mutant (BiP^T518E) (Chinese hamster (Cricetulus griseus), UniProt G3I8R9 19-654, T518E).
T4 construct: BiP (Grp78), Chinese hamster (Cricetulus griseus); Mimics aspects of AMPylation; Construct limits: see note of m1; source: E. coli M15, purified (Ni-NTA)
T4 sequence (G3I8R9 19-654 T518E): as the sequence (G3I8R9 19-654) above, with T500E counted along it
The assay is described as above. The settings on record: both partners purified.

The target of assay [8] is T5, wildtype Chinese hamster BiP, unmodified (BiP^WT) (Chinese hamster (Cricetulus griseus), UniProt G3I8R9 19-654).
T5 construct: BiP (Grp78), Chinese hamster (Cricetulus griseus); also called Grp78; haBiP; source: E. coli M15, purified (Ni-NTA); unmodified control from mock AMPylation reactions without enzyme
T5 sequence (G3I8R9 19-654): as the sequence (G3I8R9 19-654) above
Described as above. The settings on record: both partners purified.

T3 sequence (G3I8R9 19-654): as above
T1 sequence (G3I8R9 19-654 T229A/V461F): as the sequence (G3I8R9 19-654) above, with T211A, V443F counted along it

On to “biotinylated GST-J^WT and biotinylated P15 substrate peptide co-immobilized on a streptavidin BLI sensor (from UniProt Q91YW3) H422Q”, for which the response in assay [1] came to 0.1 nm; in assay [2] it was 0.14 nm.

With “wildtype J-domain of mouse P58/ERdj6 (residues 384-470) fused to GST (GST-J^WT) (from UniProt Q91YW3 384-470) (domain or fragment)”, the rate of ATP hydrolysis by BiP in a single-turnover ATPase assay with wildtype GST-J (2 µM) compared with non-functional GST-J^QPD in assay [3] is > 4 fold.

B1: wildtype J-domain of mouse P58/ERdj6 (residues 384-470) fused to GST (GST-J^WT) (domain or fragment, UniProt Q91YW3 384-470, looked up)
chain: QRLLKQSQKRDYYKILGVKRNAKKQEIIKAYRKLALQWHPDNFQNEEEKKKAEKKFIDIAAAKEVLSDPEMRKKFDDGEDPLDAESQ
modifications: biotinylated with Biotin-maleimide for the BLI experiments (a fraction of the purified protein); not biotinylated in pull-down, SEC and ATPase assays
notes: J-domain of P58/ERdj6, mouse, residues 384-470; also called model J-domain
Take B1: the Kd in assay [4] and in assay [5] was ~14 µM each time.

B2: biotinylated GST-J^WT and biotinylated P15 substrate peptide co-immobilized on a streptavidin BLI sensor (other, mouse)
chain: B1 chain
peptide: ALLLSAPRRGAGKK
modifications: biotinylated with Biotin-maleimide | biotinylated on the C-terminal lysine
notes: J-domain of P58/ERdj6, mouse, residues 384-470; P15 model BiP substrate peptide (Misselwitz et al., 1998); Not a complex: two separately biotinylated ligands on one sensor surface (GST-J to ~0.4 nm signal, then saturation with P15); the signal is not divided among them; also called sensors carrying GST-J^WT and P15; GST-J^WT-coupled sensors; source: GST-J^WT: purified GST-fusion protein, …
Turning to B2, the koff (in general, the rate constant with which the complex falls apart) was 0.00329 s⁻¹ in assay [6], 0.00165 s⁻¹ in assay [7] and 0.00079 s⁻¹ in assay [8].
